“And” between values parts separate entries of the source, which are not always exact repeats. Equal values may be shown once.
Key:
[1] = molecular target: NoHmTSP.V5, truncated HmTSP comprising the N-terminal domain plus the putative oligomerization region (aa 1-296) (Hydra magnipapillata); test: non-reducing SDS-PAGE and immunoblot; V5-tagged proteins from conditioned media of transfected COS7 cells, collected on Talon resin, boiled in SDS sample buffer without DTT; 7% SDS-polyacrylamide gels; V5 antibody blot
[2] = molecular target: HmTSPcc, 25aa synthetic peptide corresponding to HmTSP residues 249-273 (Hydra magnipapillata); test: AUC; sedimentation equilibrium; HmTSPcc 400 uM in PBS, 20 °C, 30,000-46,000 rpm; fitted to a single, ideal species model
[3] = molecular target: full-length HmTSP-His (Hydra magnipapillata thrombospondin) (Hydra magnipapillata); test: non-reducing SDS-PAGE and immunoblot; HmTSP-His from lysates of transfected HEK293T cells, collected on Ni-NTA, eluted in non-reducing SDS sample buffer; 4-20% gradient gels; anti-penta-His blot; laminin chains and prestained markers as size references

“NoHmTSP.V5, truncated HmTSP comprising the N-terminal domain plus the putative oligomerization region (aa 1-296) (domain or fragment)” was tested, and the stoichiometry N [1] was 5 and 4.

Substance “HmTSPcc, 25aa synthetic peptide corresponding to HmTSP residues 249-273” has a stoichiometry N (x monomer mass) [2] of 2.98.

With “full-length HmTSP-His (Hydra magnipapillata thrombospondin) (natural protein)” the stoichiometry N [3] was > 4.

From publication PMC6079037
